Substrate in data set [1]: CC(N)CC(=O)O
As to the kind of experiment: purified protein. The data set is classed as biochemical, Cupriavidus necator. The following applies: co-substrate 5 mM pyruvate (assumed saturating), 2.5 mM NAD+, 5 uM PLP, sodium carbonate buffer pH 10, 30 C.

Substrate in data set [2]: NCCCCC(=O)O
As to the kind of experiment: purified protein. Type of data set: biochemical, Cupriavidus necator. Particulars: co-substrate 5 mM pyruvate (assumed saturating), 2.5 mM NAD+, 5 uM PLP, sodium carbonate buffer pH 10, 30 C.

B1: CnAptA (Cupriavidus necator H16) (protein)
chain: MDAAKTVIPDLDALWMPFTANRQYKAAPRLLASASGMYYTTHDGRQILDGCAGLWCVAAGHCRTEIAEAVARQAATLDYAPPFQMGHPLSFEAATKVAAIMPQGLDRIFFTNSGSESVDTALKIALAYHRARGEGQRTRFIGRERGYHGVGFGGMAVGGIGPNRKAFSANLMPGTDHLPATLNIAEAAFSKGQPQWGAHLADELERILALHDPSNVAAVIVEPLAGSAGVLVPPVGYLEKLREITSKHGILLIFDEVITAFGRLGAATAAERFKVTPDLITMAKAINNAAVPMGAVAVRREVHDTVVNSAAPGAIELLHGYTYSGHPLAAAAAIATLDLYQRENLFGRAAELAPVFEAAVHGVRGAPHVKDIRNYGLVAGIELEPRPGQPGARAYEAFLKCLELGVLVRYTGDILAFSPPLIISEAQIGELFDTVKKALQDIK
notes: E. coli ER2566 host; 47 kDa
B1: the Km in data set [1] came out at 1300 µM; in data set [2], 930 µM.

These data come from publication PMC7427744, “Using singular perturbation theory to determine kinetic parameters in a non-standard coupled enzyme assay” (Journal of Mathematical Biology, 2020).
